Measurements reported in paper PMC6441084, “The formin Drosophila homologue of Diaphanous2 (Diaph2) controls microtubule dynamics in colorectal cancer cells independent of its FH2-domain” (Scientific Reports, 2019).

B1: full-length (FL) Diaph2 (Drosophila homologue of Diaphanous2), GST-fusion protein (natural protein, human, UniProt O60879 1-1101, looked up)
chain: MEQPGAAASGAGGGSEEPGGGRSNKRSAGNRAANEEETKNKPKLNIQIKTLADDVRDRITSFRKSTVKKEKPLIQHPIDSQVAMSEFPAAQPLYDERSLNLSEKEVLDLFEKMMEDMNLNEEKKAPLRNKDFTTKREMVVQYISATAKSGGLKNSKHECTLSSQEYVHELRSGISDEKLLNCLESLRVSLTSNPVSWVNNFGHEGLGLLLDELEKLLDKKQQENIDKKNQYKLIQCLKAFMNNKFGLQRILGDERSLLLLARAIDPKQPNMMTEIVKILSAICIVGEENILDKLLGAITTAAERNNRERFSPIVEGLENQEALQLQVACMQFINALVTSPYELDFRIHLRNEFLRSGLKTMLPDLKEKENDELDIQLKVFDENKEDDLTELSHRLNDIRAEMDDMNEVYHLLYNMLKDTAAENYFLSILQHFLLIRNDYYIRPQYYKIIEECVSQIVLHCSGMDPDFKYRQRLDIDLTHLIDSCVNKAKVEESEQKAAEFSKKFDEEFTARQEAQAELQKRDEKIKELEAEIQQLRTQAQVLSSSSGIPGPPAAPPLPGVGPPPPPPAPPLPGGAPLPPPPPPLPGMMGIPPPPPPPLLFGGPPPPPPLGGVPPPPGISLNLPYGMKQKKMYKPEVSMKRINWSKIEPTELSENCFWLRVKEDKFENPDLFAKLALNFATQIKVQKNAEALEEKKTGPTKKKVKELRILDPKTAQNLSIFLGSYRMPYEDIRNVILEVNEDMLSEALIQNLVKHLPEQKILNELAELKNEYDDLCEPEQFGVVMSSVKMLQPRLSSILFKLTFEEHINNIKPSIIAVTLACEELKKSESFNRLLELVLLVGNYMNSGSRNAQSLGFKINFLCKIRDTKSADQKTTLLHFIADICEEKYRDILKFPEELEHVESASKVSAQILKSNLASMEQQIVHLERDIKKFPQAENQHDKFVEKMTSFTKTAREQYEKLSTMHNNMMKLYENLGEYFIFDSKTVSIEEFFGDLNNFRTLFLEAVRENNKRREMEEKTRRAKLAKEKAEQEKLERQKKKKQLIDINKEGDETGVMDNLLEALQSGAAFRDRRKRIPRNPDNRRVPLERSRSRHNGAISSK
B2: FH2-domain of Diaph2 (aa 624-1049), GST-fusion protein (domain or fragment, human, UniProt O60879 624-1049, looked up)
chain: YGMKQKKMYKPEVSMKRINWSKIEPTELSENCFWLRVKEDKFENPDLFAKLALNFATQIKVQKNAEALEEKKTGPTKKKVKELRILDPKTAQNLSIFLGSYRMPYEDIRNVILEVNEDMLSEALIQNLVKHLPEQKILNELAELKNEYDDLCEPEQFGVVMSSVKMLQPRLSSILFKLTFEEHINNIKPSIIAVTLACEELKKSESFNRLLELVLLVGNYMNSGSRNAQSLGFKINFLCKIRDTKSADQKTTLLHFIADICEEKYRDILKFPEELEHVESASKVSAQILKSNLASMEQQIVHLERDIKKFPQAENQHDKFVEKMTSFTKTAREQYEKLSTMHNNMMKLYENLGEYFIFDSKTVSIEEFFGDLNNFRTLFLEAVRENNKRREMEEKTRRAKLAKEKAEQEKLERQKKKKQLIDINKE

Molecular target: microtubules (MTs) polymerised from purified tubulin (Cytoskeleton, # T240) (UniProt P02550 1-451)
Assay: cell-based or functional assay

Binder | rate of MT-polymerization (turbidity at 340 nm, no taxol; 2 µM tubulin, 0.2 µM Diaph2 protein), fold against the buffer control [fold]
B1 | 40
B2 | 4
